In US11932845B2, “Microorganisms and methods for production of 4-hydroxybutyrate, 1,4-butanediol and related compounds” (priority 2012, dated 2024):

Assays:
[1] = Minohara et al., 2002; read-out: Km for O2; cited from earlier work
[2] = tested on: D(−)-lactate dehydrogenase from L. leichmanii; details: compared with that on pyruvate; cited from earlier work
[3] = target: T1, L(+)-lactate dehydrogenase from rabbit muscle (Oryctolagus cuniculus, UniProt P13491); details: compared with that on pyruvate; cited from earlier work
T1 construct: host or cells: rabbit muscle

[4] = tested on: L(+)-lactate dehydrogenase from A. eutrophus; details: compared with that on pyruvate; cited from earlier work
[5] = tested on: branched chain alpha-ketoacid decarboxylase (BCKA); details: decarboxylation; cited from earlier work
[6] = tested on: Alcohol dehydrogenase; test: Alcohol dehydrogenase (ADH) assay in the reductive direction, cell extracts; details: cell extracts from MG1655 lacI^Q containing pZA33
Procedure: (§1) Alcohol (ADH) and aldehyde (ALD) dehydrogenase was assayed in the reductive direction using a procedure adapted from several literature sources (Durre et al., FEMS Microbiol. Rev. 17:251-262 (1995); Palosaari and Rogers, J. Bacteriol. 170:2971-2976 (1988) and Welch et al., Arch. Biochem. Biophys. 273:309-318 (1989). The oxidation of NADH is followed by reading absorbance at 340 nm every four seconds for a total of 240 seconds at room temperature. The reductive assays were performed in 100 mM MOPS (adjusted to pH 7.5 with KOH), 0.4 mM NADH, and from 1 to 50 μl of cell extract. The reaction is started by adding the following reagents: 100 μl of 100 mM acetaldehyde or butyraldehyde for ADH, or 100 μl of 1 mM acetyl-CoA or butyryl-CoA for ALD. The Spectrophotometer is quickly blanked and then the kinetic read is started. The resulting slope of the reduction in absorbance at 340 nm per minute, along with the molar extinction coefficient of NAD(P)H at 340 nM (6000) and the protein concentration of the extract, can be used to determine the specific activity.
(§2) Gene candidates for the 4-HB to BDO conversion pathway were next tested for activity when expressed in the E. coli host MG1655 lacI^Q. Recombinant strains containing each gene candidate expressed on pZA33 were grown in the presence of 0.25 mM IPTG for four hours at 37° C. to fully induce expression of the enzyme. Four hours after induction, cells were harvested and assayed for ADH and ALD activity as described above.

[7] = tested on: Aldehyde dehydrogenase; test: Aldehyde dehydrogenase (ALD) assay in the reductive direction, cell extracts; details: cell extracts from MG1655 lacI^Q containing pZA33
Procedure: as §1, §2

[8] = tested on: 4-HB to BDO conversion pathway; test: Production of BDO from 10 mM 4-HB in recombinant E. coli strains; details: for BDO: adhE2 in pZE13
Procedure: For the BDO production experiments, cat2 from Porphyromonas gingivalis W83 (gene 0034) was included on pZA33 for the conversion of 4-HB to 4-HB-CoA, while the candidate dehydrogenase genes were expressed on pZE13. The host strain was MG1655 lacI^Q. Along with the alcohol and aldehyde dehydrogenase candidates, we also tested the ability of CoA-dependent succinic semialdehyde dehydrogenases (sucD) to function in this step, due to the similarity of the substrates. Cells were grown to an OD of about 0.5 in LB medium supplemented with 10 mM 4-HB, induced with 1 mM IPTG, and culture broth samples taken after 24 hours and analyzed for BDO as described below.
Finally, the construct was tested for participation in the conversion of 4-HB to BDO. Host strains were transformed with the pZA33-0020-0021 construct described and pZE13-0002, and compared to use of cat2 in BDO production using the aerobic procedure used above in FIG. 5.

[9] = tested on: BDO pathway; assay type: cell-based, E. coli; details: host ECKh-432 with aldehyde dehydrogenase; 23G needle
[10] = target: T2, phosphotransbutyrylase (ptb) (Clostridium acetobutylicum, UniProt P58255); test: PTB enzyme activity, butyryl-CoA to butyryl-phosphate, DTNB; assay type: biochemical, C. acetobutylicum; details: extracts of cells with pZA33-0020-0021
T2 sequence (P58255 whole entry, looked up): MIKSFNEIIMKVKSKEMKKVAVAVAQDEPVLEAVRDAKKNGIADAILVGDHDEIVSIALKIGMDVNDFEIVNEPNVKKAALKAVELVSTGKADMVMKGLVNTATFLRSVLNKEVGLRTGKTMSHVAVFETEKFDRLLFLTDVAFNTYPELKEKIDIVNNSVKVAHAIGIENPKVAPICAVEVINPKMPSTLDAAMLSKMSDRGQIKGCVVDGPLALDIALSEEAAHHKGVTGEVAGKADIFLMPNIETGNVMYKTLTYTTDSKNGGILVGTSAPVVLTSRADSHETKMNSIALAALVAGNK
Procedure: The enzyme activity of PTB is measured in the direction of butyryl-CoA to butyryl-phosphate as described in Cary et al. J. Bacteriol. 170:4613-4618 (1988). It provides inorganic phosphate for the conversion, and follows the increase in free CoA with the reagent 5,5′-dithiobis-(2-nitrobenzoic acid), or DTNB. DTNB rapidly reacts with thiol groups such as free CoA to release the yellow-colored 2-nitro-5-mercaptobenzoic acid (TNB), which absorbs at 412 nm with a molar extinction coefficient of 14,140 M cm^−1. The assay buffer contained 150 mM potassium phosphate at pH 7.4, 0.1 mM DTNB, and 0.2 mM butyryl-CoA, and the reaction was started by addition of 2 to 50 μL cell extract. The enzyme activity of BK is measured in the direction of butyrate to butyryl-phosphate formation at the expense of ATP. The procedure is similar to the assay for acetate kinase previously described Rose et al., J. Biol. Chem. 211:737-756 (1954). […] This assay links conversion of ATP to ADP by acetate kinase to the linked conversion of ADP and phosphoenolpyruvate (PEP) to ATP and pyruvate by pyruvate kinase, followed by the conversion of pyruvate and NADH to lactate and NAD+ by lactate dehydrogenase. […] The reaction was started by adding 2 to 50 μL cell extract, and the reaction was monitored based on the decrease in absorbance at 340 nm indicating NADH oxidation.

cytochrome bd oxidase: E. coli cytochrome d terminal oxidase, encoded by the cyd operon
Km [1]: 0.01 µM

O=C(O)CCC(=O)C(=O)O [2-Oxoglutarate]
Activity (%) of D(−)-lactate dehydrogenase from L. leichmanii [2]: 0.0% | Activity (%) of L(+)-lactate dehydrogenase from rabbit muscle [3]: 0.0% | Activity (%) of L(+)-lactate dehydrogenase from A. eutrophus [4]: 79.6% | activity relative to activity on other branched-chain substrates [5]: 5%

B1: 0026: Gene ID 0026, bdhA, Clostridium acetobutylicum ATCC 824, Butanol dehydrogenase (protein, UniProt Q04944 1-389, looked up)
NADH-dependent butanol …: MLSFDYSIPTKVFFGKGKIDVIGEEIKKYGSRVLIVYGGGSIKRNGIYDRATAILKENNIAFYELSGVEPNPRITTVKKGIEICRENNVDLVLAIGGGSAIDCSKVIAAGVYYDGDTWDMVKDPSKITKVLPIASILTLSATGSEMDQIAVISNMETNEKLGVGHDDMRPKFSVLDPTYTFTVPKNQTAAGTADIMSHTFESYFSGVEGAYVQDGIAEAILRTCIKYGKIAMEKTDDYEARANLMWASSLAINGLLSLGKDRKWSCHPMEHELSAYYDITHGVGLAILTPNWMEYILNDDTLHKFVSYGINVWGIDKNKDNYEIAREAIKNTREYFNSLGIPSKLREVGIGKDKLELMAKQAVRNSGGTIGSLRPINAEDVLEIFKKSY
Alcohol dehydrogenase, Substrate Acetaldehyde [6]: 0.0008 μmol min^−1 mg cell protein^−1 | Alcohol dehydrogenase, Substrate Butyraldehyde [6]: 0.0024 μmol min^−1 mg cell protein^−1 | Aldehyde dehydrogenase, Substrate Acetyl-CoA [7]: 0.0005 μmol min^−1 mg cell protein^−1 | Aldehyde dehydrogenase, Substrate Butyryl-CoA [7]: 0 μmol min^−1 mg cell protein^−1

B2: 0034: Gene ID 0034, cat2, Porphyromonas gingivalis W83, 4-hydroxybutyrate coenzyme A transferase (protein, listed as Porphyromonas gingivalis)
chain: MKDVLAEYASRIVSAEEAVKHIKNGERVALSHAAGVPQSCVDALVQQADLFQNVEIYHMLCLGEGKYMAPEMAPHFRHITNFVGGNSRKAVEENRADFIPVFFYEVPSMIRKDILHIDVAIVQLSMPDENGYCSFGVSCDYSKPAAESAHLVIGEINRQMPYVHGDNLIHISKLDYIVMADYPIYSLAKPKIGEVEEAIGRNCAELIEDGATLQLGIGAIPDAALLFLKDKKDLGIHTEMFSDGVVELVRSGVITGKKKTLHPGKMVATFLMGSEDVYHFIDKNPDVELYPVDYVNDPRVIAQNDNMVSINSCIEIDLMGQVVSECIGSKQFSGTGGQVDYVRGAAWSKNGKSIMAIPSTAKNGTASRIVPIIAEGAAVTTLRNEVDYVVTEYGIAQLKGKSLRQRAEALIAIAHPDFREELTKHLRKRFG
BDO/OD ([8]; Host Strain MG1655 lacI^Q): 0.042 | BDO ([8]; Host Strain MG1655 lacI^Q, aerobic procedure): 0.827 µM | BDO/OD ([8]; Host Strain MG1655 ΔadhE lacI^Q): 0.166 | BDO ([8]; Host Strain MG1655 ΔadhE lacI^Q, aerobic procedure): 2.084 µM | BDO produced ([8]; with pZE13-0002, aerobic procedure): 2 mM | BDO and GBL levels [9]: significantly higher than 2021n

B3: PTB: phosphotransbutyrylase (ptb) from C. acetobutylicum, gene 0020 (protein, UniProt P58255 1-301, looked up)
Phosphate butyryltransferase: T2 sequence (P58255 whole entry, looked up)
specific activity of PTB [10]: approximately 5 U/mg
